Measured values reported in article PMC7449927.

B1: SIX1 (sine oculis homeobox homolog 1): T276A (protein)
parent chain: MSMLPSFGFTQEQVACVCEVLQQGGNLERLGRFLWSLPACDHLHKNESVLKAKAVVAFHRGNFRELYKILESHQFSPHNHPKLQQLWLKAHYVEAEKLRGRPLGAVGKYRVRRKFPLPRTIWDGEETSYCFKEKSRGVLREWYAHNPYPSPREKRELAEATGLTTTQVSNWFKNRRQRDRAAEAKERENTENNNSSSNKQNQLSPLEGGKPLMSSSEEEFSPPQSPDQNSVLLLQGNMGHARSSNYSLPGLTASQPSHGLQTHQHQLQDSLLGPLTSSLVDLGS
B2: SIX1 (sine oculis homeobox homolog 1): OGT knockdown (protein)
parent chain: B1 parent chain

Key:
[1] = CHX chase western blot (half-life), TMG; conditions: glycan lost; control: wild-type SIX1, TMG-treated
[2] = ubiquitin affinity bead pulldown, SIX1 blot, MG132 and NEM; conditions: glycan lost; control: wild-type SIX1, TMG-treated
[3] = western blot, BEL7402-SIX1KO rescue cells, TMG; conditions: glycan lost; control: wild-type SIX1, TMG-treated
[4] = western blot, BEL7402 and BEL7404 cells; conditions: glycan lost; control: untreated / control lentivirus

| Protein | degradation_or_half_life [1] | other: ubiquitination [2] | expression_or_secretion [3] | expression_or_secretion [4] |
| --- | --- | --- | --- | --- |
| B1 | decreases | increases | decreases | – |
| B2 | – | – | – | decreases |
